Measured values published in patent publication US20070287163A1 (CRUCELL HOLLAND B V, published 2007).

Molecular target: T1, CD46 (human (HEp-2 cells), UniProt P15529)
T1 construct: endogenous, cell-surface biotinylated, solubilised in Triton X-100 lysate; The bands in the CR2300 lane were not separately identified
T1 sequence (antigen, looked up): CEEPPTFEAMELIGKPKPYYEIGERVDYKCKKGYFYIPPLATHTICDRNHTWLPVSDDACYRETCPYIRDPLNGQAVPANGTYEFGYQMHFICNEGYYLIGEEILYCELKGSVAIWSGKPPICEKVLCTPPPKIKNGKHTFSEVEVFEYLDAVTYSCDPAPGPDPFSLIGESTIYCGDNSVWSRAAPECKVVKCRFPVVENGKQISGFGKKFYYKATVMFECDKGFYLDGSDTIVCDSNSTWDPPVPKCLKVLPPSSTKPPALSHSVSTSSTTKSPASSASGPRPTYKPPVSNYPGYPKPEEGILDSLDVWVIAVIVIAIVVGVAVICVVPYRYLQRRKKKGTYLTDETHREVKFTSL
Test: immunoprecipitation from surface-biotinylated HEp-2 lysate, streptavidin-HRP blot
Procedure: To identify whether CR2407 reacted with a membrane extractable antigen, the cell surface of 10⁸ HEp-2 cells were biotinylated during 1 hour at room temperature with a final concentration of 2 mg sulfo-NHS-LC-LC-biotin in physiological buffer (0.2 M phosphate buffer containing 0.12 M NaCl, pH 7.4). Subsequently, the remaining free biotin was blocked during an incubation of 30 minutes at room temperature with 10 mM glycine in physiological buffer. After labeling, the cells were washed with cold physiological buffer and solubilized for 30 minutes on ice at a concentration of 3×10⁷ cells/ml in TX-100 lysis buffer (1% Triton X-100, 150 mM NaCl, 50 mM Tris pH 7.4, protease inhibitors (Roche)). The unsoluble material was removed by centrifugation for 30 minutes at 4° C. at 20,000*g.
Hereafter, the biotinylated solubilized lysates were pre-cleared with protein-A beads for 2 hours at 4° C. 4 μg of CR2407 and the negative control antibody CR2428 and positive control antibody CR2300 (directed against CD46) were coupled to protein A beads at room temperature. Next, the pre-cleared samples were incubated with the above IgG's coupled to protein-A beads for 2 hours at 4° C. […] After blotting on PVDF membranes, the biotinylated proteins were detected with streptavidin-HRP (Amersham) and enhanced chemoluminescence (Amersham).

B1: CR2407 IgG1 (antibody, V domains shown)
VH: EVQLVESGGGLVQPGGSLRLSCAASGFTFSSYAMSWVRQAPGKGLEWVSAISGSGGSTYYADSVKGRFTISRDNSKDTLYLQMSSLKTEDTAVYYCARGSLLQFWGQGTLVTVSS
VL: SSELTQDPAVSVALGQTVRITCQGDSLRSYYASWYQQKPGQAPVLVIYGKNNRPSGIPDRFSGSSSGNTASLTITGAQAEDEADYYCNSRDSSGNHVVFGGGTKLTVLG
notes: also called anti-ALCAM IgG1
Does B1 bind?
Result: no binding (tested: 4 ug IgG on protein-A beads)
